These are literature values, as cited in paper PMC4479967 (Journal of molecular neuroscience : MN, 2015).

For this data set the following is noted: Src-dependent; ref Daulhac et al., 1999.

B1: CCK: cholecystokinin (peptide, UniProt P06307 21-115, looked up)
Cholecystokinin: QPVPPADPAGSGLQRAEEAPRRQLRVSQRTDGESRAHLGALLARYIQQARKAPSGRMSIVKNLQNLDPSHRISDRDYMGWMDFGRRSAEEYEYPS
For the molecule B1, the “Effect on ERK-1 and p85/p110-PI-3-K” value is reported as “causes activation”.
